Six molecules from patent publication US20250019446A1 (SHANGHAI SINOBAY BIOTECHNOLOGY, published 2025) can be followed below.

Residue numbers refer to the chain shown, from its start.

In assay [1] the target is T1, human recombinant AXL protein, extracellular domain (hAXL-ECD) (human, UniProt P30530 26-451).
T1 construct: extracellular domain; Bought protein; also called antigen hAXL-ECD; hAXL-ECD protein
T1 sequence (looked up): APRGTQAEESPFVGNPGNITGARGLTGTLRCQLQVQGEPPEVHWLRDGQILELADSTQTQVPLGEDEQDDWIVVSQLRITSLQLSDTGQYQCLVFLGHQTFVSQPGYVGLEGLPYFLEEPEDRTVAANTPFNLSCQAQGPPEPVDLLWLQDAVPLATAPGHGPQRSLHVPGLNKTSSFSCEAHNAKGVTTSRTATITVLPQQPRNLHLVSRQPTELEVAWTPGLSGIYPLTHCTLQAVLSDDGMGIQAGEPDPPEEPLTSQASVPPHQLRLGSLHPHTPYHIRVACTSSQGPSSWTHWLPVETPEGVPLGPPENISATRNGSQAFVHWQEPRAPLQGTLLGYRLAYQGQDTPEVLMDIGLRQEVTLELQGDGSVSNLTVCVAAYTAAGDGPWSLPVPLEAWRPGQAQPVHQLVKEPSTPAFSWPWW
Kind of assay: ELISA, Fab supernatant on coated hAXL-ECD, OD450; unit inferred, unit taken from the concentration axis. As for the experimental part:
Clones from the third round of selection were first picked up in a 96-well deep-well plate containing 300 μL of 2-YT medium and incubated overnight at 37° C. The supernatant, which contained the expressed Fab, was taken, diluted in a gradient, and added to an ELISA plate coated with 2 μg/mL of hAXL-ECD. HRP-labeled goat anti-human Fab was used as the secondary antibody (goat anti-human-HRP, ThermnoFisher, 31482, 1:6000 dilution) for detection. A higher signal value indicated a stronger affinity.
A general note: An ELISA detects its analyte on a solid surface through an enzyme-linked reagent.

The target of assay [2] is T2, AXL on CHO-AXL cells (human, UniProt P30530 26-894).
T2 construct: whole, on cells; The construct in the CHO-AXL cells is not described
T2 sequence (looked up): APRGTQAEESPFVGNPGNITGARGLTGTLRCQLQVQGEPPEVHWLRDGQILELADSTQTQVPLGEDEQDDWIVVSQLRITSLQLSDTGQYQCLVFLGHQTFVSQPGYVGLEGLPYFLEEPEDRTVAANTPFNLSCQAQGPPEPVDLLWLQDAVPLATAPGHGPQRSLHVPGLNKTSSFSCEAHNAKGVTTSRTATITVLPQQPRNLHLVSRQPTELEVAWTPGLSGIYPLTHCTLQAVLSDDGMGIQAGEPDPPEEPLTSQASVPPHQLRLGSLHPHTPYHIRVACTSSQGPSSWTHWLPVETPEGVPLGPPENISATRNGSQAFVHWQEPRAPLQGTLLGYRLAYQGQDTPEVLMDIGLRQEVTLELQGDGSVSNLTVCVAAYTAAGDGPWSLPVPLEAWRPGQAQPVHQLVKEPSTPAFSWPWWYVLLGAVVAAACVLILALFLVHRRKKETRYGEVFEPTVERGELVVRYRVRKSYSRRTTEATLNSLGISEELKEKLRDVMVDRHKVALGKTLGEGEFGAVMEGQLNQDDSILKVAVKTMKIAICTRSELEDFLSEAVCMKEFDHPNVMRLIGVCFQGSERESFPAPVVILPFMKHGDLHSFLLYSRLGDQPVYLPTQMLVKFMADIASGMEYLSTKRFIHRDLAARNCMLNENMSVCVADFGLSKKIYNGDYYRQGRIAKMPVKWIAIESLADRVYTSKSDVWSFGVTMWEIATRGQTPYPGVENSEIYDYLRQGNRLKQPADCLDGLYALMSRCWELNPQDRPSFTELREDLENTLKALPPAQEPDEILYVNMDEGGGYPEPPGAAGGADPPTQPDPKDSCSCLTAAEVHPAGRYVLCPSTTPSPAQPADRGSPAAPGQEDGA
Kind of assay: flow cytometry on CHO-AXL cells, pH 6.0 against pH 7.4. The method, then:
(§1) The affinity of the candidate antibody for specific binding to hAXL-ECD was detected by flow cytometry. A total of 4 clones of Hu001-5, Hu001-7, Hu001-11, and Hu001-14 were tested under acidic (pH=6.0) and neutral (pH=7.4) conditions, respectively.
(§2) CHO-AXL cells (constructed by Shanghai Sinobay Biotechnology Co. Ltd.) were cultured in a cell culture flask in DMEM/F-12 medium (10% FBS, 1% penicillin/streptomycin). After 48 hours of culture at 37° C. in an incubator containing 5% CO₂, the supernatant was discarded. The cells were collected by digestion with 0.25% trypsin and centrifuged at 800 g for 3 minutes. The supernatant was discarded and the cells were resuspended (10⁶/mL) in 2% FBS Wash Buffer. The pH of the buffer was adjusted and the cells were divided into pH6.0 and pH7.4 groups, and primary antibodies (Hu001-5 antibody, Hu001-7 antibody, Hu001-11 antibody, Hu001-14 antibody, and positive control antibody CCT301-38) were added to each group and incubated for 15 minutes at room temperature. The supernatant was discarded. Fluorescent-labeled secondary antibody IgG-Fc-PE (BioLegend, cat. No. 409304) was added and incubation was continued at room temperature for 15 min in the dark. Then, the detection was performed on the machine. A higher signal value can indicate a stronger affinity. […]
(In general: Flow cytometry measures light scatter and fluorescence of single cells or particles in a stream.)

Assay [3] concerns the target T2, AXL on CHO-AXL cells. The assay is described as follows: flow cytometry on CHO-AXL cells, pH 6.0 and pH 7.4, IgG-Fc-PE secondary antibody. The method, then:
as §1, §2

B1: Hu001-7 Fab (clone 7, expressed in clone supernatant) (Fab, V domains shown)
VH: QVQLVQSGAEVKKPGSSVKVSCKASGGTFSSYAISWVRQAPGQGLEWMGGIIPIFGTANYAQKFQGRVTITADESTSTAYMELSSLRSEDTAVYYCAKDIVSRVRGELVGGYYYFGLDVWGQGTTVTVSA
VL: NIQLTQSPSSLSASVGDRVTITCRASQTISSYLNWYQQKPGKAPKLLIYAASRLQSGVPSRFSGSGSGTDFTLTISSLQPEDFATYYCQQSYSTPRTFGQGTKVEIK
notes: Fab from the phage library clone, tested as bacterial culture supernatant
With B1, the EC50 (commonly the midpoint of the concentration-response curve) in assay [1] was found to be 0.214 µg/mL.

B2: Hu001-5 antibody (full-length human IgG1, kappa) (antibody, V domains shown)
VH: QVQLLESGGGVVQPGRSLRLSCAASGFTFSSYGMHWVRQAPGKGLEWVAVISYDGSNKYYADSVKGRFTISRDNSKNTLYLQMNSLRAEDTAVYYCAKDQVLAPVGGGLFDYWGQGTLVTVSA
VL: B1 VL with N1D, T28S, S31T, K45E, L46S, Y49F, R53S, Q55A, Q100P
notes: built as human IgG1 with kappa light chain in vectors AbVec-hIgG1 WT and AbVec-hIgKappa, expressed in Expi293 cells; also called anti-AXL antibody Hu001-5
Turning to B2, in the assay with AXL on CHO-AXL cells [2], the “fold of mean fluorescence intensity under the acidic condition against the neutral condition” value is about 1.5 fold. The “fold of mean fluorescence intensity against the positive control CCT301-38” value with AXL on CHO-AXL cells [3] was about 4 fold.

B3: Hu001-5 Fab (clone 5, expressed in clone supernatant) (Fab, V domains shown)
VH: B2 VH
VL: B1 VL with N1D, T28S, S31T, K45E, L46S, Y49F, R53S, Q55A, Q100P
notes: as for B1
B3: the EC50 in assay [1] is 0.292 µg/mL.

B4: Hu001-11 Fab (clone 11, expressed in clone supernatant) (Fab, V domains shown)
VH: QVQLLESGGGVVQPGRSLRLSCAASGFTFSSYGMHWVRQAPGKGLEWVAVISYDGSNKYYADSVKGRFTISRDNSKNTLYLQMNSLRAEDTAVYYCAKYGSSGPYWYFDLWGQGTLVTVSA
VL: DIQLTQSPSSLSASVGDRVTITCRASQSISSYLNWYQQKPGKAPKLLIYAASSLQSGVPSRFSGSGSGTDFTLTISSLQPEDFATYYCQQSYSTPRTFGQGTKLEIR
notes: as for B1
Consider B4, for which, in assay [1], the EC50 came to 0.14 µg/mL.

B5: Hu001-11 antibody (full-length human IgG1, kappa) (antibody, V domains shown)
VH: B4 VH
VL: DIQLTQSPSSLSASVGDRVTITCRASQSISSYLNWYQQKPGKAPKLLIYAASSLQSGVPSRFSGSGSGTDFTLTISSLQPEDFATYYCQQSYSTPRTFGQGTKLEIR
notes: built as human IgG1 with kappa light chain in vectors AbVec-hIgG1 WT and AbVec-hIgKappa, expressed in Expi293 cells; also called anti-AXL antibody Hu001-11
As to B5, the “fold of mean fluorescence intensity under the acidic condition against the neutral condition” value in the assay with AXL on CHO-AXL cells [2] is about 1.5 fold. The “fold of mean fluorescence intensity against the positive control CCT301-38” value with AXL on CHO-AXL cells [3] was about 4 fold.

B6: Hu001-14 Fab (clone 14, expressed in clone supernatant) (Fab, V domains shown)
VH: EVQLVQSGAEVKKPGASVKVSCKASGYTFTSYYMHWVRQAPGQGLEWMGIINPSGGSTSYAQKFQGRVTMTRDTSTSTVYMELSSLRSEDSAVYYCARDWYFDVWGAGTTVTVSA
VL: NIQMTQSPSSVSASVGDRVTITCRASQGISSWLAWYQQKPGKAPKLLIYAASSLQSGVPSRFSGSGSGTDFTLTISSLQPEDFATYYCQQANSFPFTFGGGTKVEIK
notes: as for B1
For B6, in assay [1], the EC50 worked out at 0.274 µg/mL.
